Residue numbers refer to the chain shown, from its start. Where no end group is shown, it is not given here. The star is where a group is joined. Biotin = O=C1N[C@H]2[C@H](CS[C@H]2CCCCC(=O)*)N1
T1: biotinylated 15 amino acid tau peptide, residues 302-316 (human)
T1 peptide: Biotin-GGGSVQIVYKPVDLS

T2: biotinylated 15 amino acid tau peptide, residues 383-397 (human)
T2 peptide: Biotin-KAKTDHGAEIVYKSP

B1: mouse 10C12 antibody (antibody, mouse IgG2a, V domains shown)
VH: EVQLQQSGAELVRPGASVKLSCTASGFNIKDDYMNWVKQRPERGLEWIGWIDPENGDTEYASKFQGKATMTADTSSNTAYLQFSSLTSEDTAVYYCTTSNGWGQGTLVTVST
VL: DIVMTQAAFSNPVTLGTSASISCRSSKSLLHSNGITYLYWYLQKPGQSPQLLIYQMSNLASGVPDRFSSSGSGTDFTLRISRVEAEDVGVYYCAQNLELPLTFGAGTKLELK
notes: also called m10C12
B2: mouse 9F5 antibody (antibody, mouse IgG1, V domains shown)
VH: B1 VH
VL: B1 VL
notes: also called m9F5; murine 9F5
B3: mouse 2D11 antibody (antibody, mouse IgG2a, V domains shown)
VH: B1 VH
VL: B1 VL
B4: mouse 12C4 antibody (antibody, mouse IgG2a, V domains shown)
VH: B1 VH with K38R, E59A, T91S, T112A
VL: B1 VL
notes: also called m12C4
B5: mouse 17C12 antibody (antibody, mouse IgG2a, V domains shown)
VH: B1 VH with E1K, V2I, G26A, E59K, F83L, T112A
VL: DVVMTQTPLTLSVTIGQPASISCTSSQSLLHSNRKTYLHWLLQRPGQSPKLLIYLVSKLESGVPDRFSGSGSGTDFTLKISRVEAEDLGVYYCLQTTHFPRTFGGGTKLEIK
notes: also called m17C12
B6: mouse 14H3 antibody (antibody, mouse IgG2a, V domains shown)
VH: QVTLKESGPGILQPSQTLSLTCSFSGFSLSTYGMGVGWIRQPSGKGLEWLANIWWDDIKYYNAALKSRLTISKDTSKNQVFLKIASVDTADTATYYCARNVDYWGQGTTLTVSS
VL: DVVMTQTPLSLPVSLGDQASISCRSSQSLVHSNGNTFLHWYLQKPGQSPKLLIYKVSNRFSGVPDRFSGSGSGTDFTLKISRVEAEDLGVYFCSQSTLVPWTFGGGTKLEIK
notes: also called m14H3

These binders were tested against T3, human tau oligomers (human, UniProt P10636-6 2-383, limits assumed) (assay: cell-based or functional assay).
T3 sequence (P10636 other isoform, or with tags, fused parts or gaps limits assumed): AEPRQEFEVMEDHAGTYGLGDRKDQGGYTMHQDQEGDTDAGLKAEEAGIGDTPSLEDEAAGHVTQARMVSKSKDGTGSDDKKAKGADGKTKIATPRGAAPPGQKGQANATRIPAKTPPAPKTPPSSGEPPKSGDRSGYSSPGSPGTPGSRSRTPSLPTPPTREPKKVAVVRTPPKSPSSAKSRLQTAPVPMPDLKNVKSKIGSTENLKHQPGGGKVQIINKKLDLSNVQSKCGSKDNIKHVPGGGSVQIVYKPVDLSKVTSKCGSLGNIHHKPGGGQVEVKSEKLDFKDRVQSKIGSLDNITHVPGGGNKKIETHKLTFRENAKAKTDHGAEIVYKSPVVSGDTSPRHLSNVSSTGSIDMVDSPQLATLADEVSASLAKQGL

Binder | MTT viability of primary neurons with tau oligomers, antibody at 0.2 molar equivs | MTT viability of primary neurons with tau oligomers, antibody at 0.33 molar equivs | MTT viability of primary neurons with tau oligomers, antibody at 1 molar equivs | MTT viability of primary neurons with tau oligomers, antibody at 3 molar equivs | MTT viability of primary neurons with tau oligomers, antibody at 5 molar equivs
B1 | 47.1 % of control | 51.3 % of control | 56.4 % of control | 69.2 % of control | 86.8 % of control
B2 | 47.4 % of control | 58 % of control | 64.9 % of control | 92.6 % of control | 93.1 % of control
B3 | 52.8 % of control | 59.5 % of control | 50.9 % of control | 64 % of control | 92.2 % of control
B4 | 48.6 % of control | 53.2 % of control | 62.3 % of control | 78.7 % of control | 81.1 % of control

Target: T3, human tau oligomers
Experiment: cell-based or functional assay
Remark: another data set of the same source

Binder | LDH released by primary neurons with tau oligomers, antibody at 0.2 molar equivs | LDH released by primary neurons with tau oligomers, antibody at 0.33 molar equivs | LDH released by primary neurons with tau oligomers, antibody at 1 molar equivs | LDH released by primary neurons with tau oligomers, antibody at 3 molar equivs | LDH released by primary neurons with tau oligomers, antibody at 5 molar equivs
B1 | 140 % of control | 129 % of control | 109 % of control | 101 % of control | 95.1 % of control
B2 | 155 % of control | 152 % of control | 116 % of control | 95.9 % of control | 91.4 % of control
B3 | 177 % of control | 148 % of control | 131 % of control | 109 % of control | 115 % of control
B4 | 153 % of control | 152 % of control | 124 % of control | 110 % of control | 108 % of control

Target: T1, biotinylated 15 amino acid tau peptide, …
Experiment: ELISA, biotinylated peptide on streptavidin plate
Description: (§1) Peptides contained 15 amino acids, with a 5 amino acid overlap. To enable binding to a streptavidin surface, peptides also contained an N-terminal biotin. Peptides were incubated on a streptavidin-coated plate, and the plate was blocked with 1% BSA in 1× PBS. After washing, antibodies were incubated on the plates for 1 hour at room temperature and washed. Plates were then coated with goat anti-mouse horseradish peroxidase (HRP), and washed. Plates were developed with OPD, and absorbance was read at 490 nm. […]

Binder | binding result
B1 | binds
B5 | binds
B2 | binds
B3 | binds
B4 | binds
B6 | binds

Target: T2, biotinylated 15 amino acid tau peptide, …
Experiment: ELISA, biotinylated peptide on streptavidin plate
Description: as §1

Binder | binding result
B1 | binds
B5 | binds
B2 | binds
B3 | binds
B4 | binds
B6 | binds

Each binder was assayed against T4, recombinant human 4R0N tau (human, UniProt P10636 2-758) (assay: SPR Biacore; antibody captured by anti-mouse antibody; tau as analyte; global 1:1 fit).
T4 construct: also called recombinant 4R0N human tau; P10636-6
T4 sequence (P10636 other isoform, or with tags, fused parts or gaps limits assumed): as above
Description: Surface plasmon resonance (SPR) analysis using Biacore was performed by immobilizing an anti-mouse (GE Lifesciences) antibody to a CM3 chip with EDC/NHS. Antibodies were then captured to the anti-mouse surface to equivalent levels. Regeneration was performed with 2 30 s injections of 10 mM Glycine pH 1.7. Various concentrations ranging from 500 to 0.122 nM, diluted in […] dilutions, of recombinant human 4R0N tau were flowed over the sensor for a 150s association phase and 300 s dissociation phase. Data was blank subtracted to both an irrelevant sensor not containing test antibody to account for irrelevant binding to the prepared sensor surface, and to the mobile phase vehicle to account for the dissociation of test antibody from the anti-mouse capture. Data was then analyzed with onboard evaluation software using a global 1:1 fit.

Binder | Kd | koff | kon
B1 | 0.375 nM | 0.00245 s⁻¹ | 6.53e+06 M⁻¹ s⁻¹
B5 | 0.482 nM | 0.00194 s⁻¹ | 4.03e+06 M⁻¹ s⁻¹
B2 | 0.35 nM | 0.00224 s⁻¹ | 6.39e+06 M⁻¹ s⁻¹
B3 | 0.318 nM | 0.00221 s⁻¹ | 6.93e+06 M⁻¹ s⁻¹
B4 | 0.363 nM | 0.00206 s⁻¹ | 5.69e+06 M⁻¹ s⁻¹
B6 | 0.202 nM | 0.00153 s⁻¹ | 7.6e+06 M⁻¹ s⁻¹
